Experimental data: publication PMC9299608, “A Multi‐enzyme Cascade for the Biosynthesis of AICA Ribonucleoside Di‐ and Triphosphate” (Chembiochem, 2021)
Values belong to the molecule of their own block, whether it stands above or below them.

Tests used:
[1] = biological target: T1, MrPPK (Meiothermus ruber, UniProt M9XB82); test: HPLC product quantification, Michaelis-Menten fit limited to data without substrate inhibition; type: biochemical; conditions: sodium polyphosphate as phosphate donor (standard assay 5 mM), MgCl2 20 mM, tris pH 8.0, 40 °C; not a true KM; reduced activity above 14 mM substrate
T1 construct: gene K649_10090; expressed in E. coli SHuffle T7 Express; IMAC and desalting
T1 sequence (M9XB82 1-267): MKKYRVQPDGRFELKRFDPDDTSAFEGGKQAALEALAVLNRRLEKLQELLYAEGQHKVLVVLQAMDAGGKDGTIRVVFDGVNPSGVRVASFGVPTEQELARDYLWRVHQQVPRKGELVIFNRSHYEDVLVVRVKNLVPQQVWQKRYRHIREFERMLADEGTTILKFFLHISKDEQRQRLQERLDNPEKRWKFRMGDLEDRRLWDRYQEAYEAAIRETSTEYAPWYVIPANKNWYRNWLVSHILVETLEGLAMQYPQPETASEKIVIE
Description: HPLC product quantification, Michaelis-Menten fit limited to data without substrate inhibition on MrPPK

[2] = system: NC(=O)c1ncn([C@@H]2O[C@H](COP(=O)(O)O)[C@@H](O)[C@H]2O)c1N; test: purified protein; conditions: sodium polyphosphate as phosphate donor (standard assay 5 mM), MgCl2 20 mM, tris pH 8.0, 30 °C
[3] = substrate: NC(=O)c1[nH]cnc1N; test: HPLC product quantification, Michaelis-Menten fit; type: biochemical, Escherichia coli; conditions: co-substrate PRPP, MgCl2 20 mM, tris pH 8.0, standard assay 40 °C (kinetics under conditions optimized for each cascade), text b32 gives 6.2
Description: HPLC product quantification, Michaelis-Menten fit on EcAPT

- Km [1]: > 8.6 mM
Molecule: NC(=O)c1ncn([C@@H]2O[C@H](COP(=O)(O)O)[C@@H](O)[C@H]2O)c1N [ZMP]

Molecule: AjPPK (Acinetobacter johnsonii)
- Km [2]: 8.2 ± 1.4 mmol/L
- Vmax [2]: 67 µmol/min/mg

B1: EcAPT (Escherichia coli K-12) (protein)
chain: MTATAQQLEYLKNSIKSIQDYPKPGILFRDVTSLLEDPKAYALSIDLLVERYKNAGITKVVGTEARGFLFGAPVALGLGVGFVPVRKPGKLPRETISETYDLEYGTDQLEIHVDAIKPGDKVLVVDDLLATGGTIEATVKLIRRLGGEVADAAFIINLFDLGGEQRLEKQGITSYSLVPFPGH
notes: expressed in E. coli BL21(DE3); IMAC and desalting
- Km [3]: 6.3 ± 2.3 mmol/L
- Vmax [3]: 8.6 µmol/min/mg
